Measured values published in patent US20200254053A1.
No end group written: not given here. dPEG24 = 24 PEG moieties

Target: C1q as present in the human serum or plasma of the hemolytic assays (human) (UniProt P02745)
Experiment: cell-based or functional assay

Chain of UniProt P02745 (P02745 23-245 limits assumed, chain 1 of 3): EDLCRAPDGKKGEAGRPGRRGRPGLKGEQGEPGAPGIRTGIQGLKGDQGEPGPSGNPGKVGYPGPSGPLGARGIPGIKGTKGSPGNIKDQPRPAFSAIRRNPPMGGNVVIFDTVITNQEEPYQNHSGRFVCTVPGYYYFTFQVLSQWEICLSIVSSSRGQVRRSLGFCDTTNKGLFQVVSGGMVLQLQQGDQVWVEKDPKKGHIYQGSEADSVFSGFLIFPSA
Chain of UniProt P02745 (P02746 28-253 limits assumed, chain 2 of 3, further chain): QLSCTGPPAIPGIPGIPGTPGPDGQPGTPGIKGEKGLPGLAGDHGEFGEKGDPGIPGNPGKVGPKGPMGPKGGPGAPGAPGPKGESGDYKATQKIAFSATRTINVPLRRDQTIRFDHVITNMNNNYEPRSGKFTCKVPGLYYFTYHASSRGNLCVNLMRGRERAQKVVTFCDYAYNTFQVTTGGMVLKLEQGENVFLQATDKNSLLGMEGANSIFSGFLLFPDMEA
Chain of UniProt P02745 (P02747 29-245 limits assumed, chain 3 of 3, further chain): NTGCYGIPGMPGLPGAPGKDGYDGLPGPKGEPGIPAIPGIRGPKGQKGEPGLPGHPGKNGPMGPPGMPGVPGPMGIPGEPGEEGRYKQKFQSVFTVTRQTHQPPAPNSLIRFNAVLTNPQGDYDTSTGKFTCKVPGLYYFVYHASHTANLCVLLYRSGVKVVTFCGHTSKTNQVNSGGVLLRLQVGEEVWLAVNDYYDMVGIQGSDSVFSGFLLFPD

B1: PA-dPEG24 (peptide)
peptide: IALILEPICCQERAA-dPEG24
modifications: cysteine pairing not given here
- Hemolysis in presence of PA-dPEG24 (Abs 412 nm), type-O donor #1 plasma with B+ erythrocytes (0.747 without peptide): 0.008 Abs 412 nm
- inhibition of hemolysis, type-O plasma with type-B erythrocytes, dose response (FIG. 8): > 95%
